# In patent US20220111042A1, “MANF as a Regulator of Immune System Function” (University of Massachusetts, priority 2014, published 2022):
# Where two headings read alike, the source gives them in different places.
# B1: MANF: mesencephalic astrocyte-derived neurotrophic factor, an 18 kDa secreted protein; form used in the tests not stated (protein, UniProt P55145 25-182, looked up)
# Mesencephalic …: LRPGDCEVCISYLGRFYQDLKDRDVTFSPATIENELIKFCREARGKENRLCYYIGATDDAATKIINEVSKPLAHHIPVEKICEKLKKKDSQICELKYDKQIDLSTVDLKKLRVKELKKILDDWGETCKGCAEKSDYIRKINELMPKYAPKAASARTDL
# Columns and labels:
# DO 11.10 cells [1] = assay: Dexamethasone dose-response for cell death of DO 11.10 cells; type: cell-based; conditions: dose-response curve
# Method: FIGS. 10A-B provides an analysis of MANF's ability to protect DO 11.10 cells from cell death caused by the glucocorticoid dexamethasone. […] DO 11.10 cells were pretreated for 24 hrs with MANF (dose shown; B) and then challenged with 100 nM dexamethasone to induce cell death. *p=0.003; **p=0.019.
# (§1) Because MANF is expressed in T cells and is induced when they become activated, experiments were performed to determine whether MANF confers protection to these cells. A dose-response curve was generated with the glucocorticoid dexamethasone to determine the dose that results in ˜50% cell death (24 nM) (FIG. 10A). DO 11.10 cells were then pretreated for 24 hours with 0, 10 ng/mL, 100 ng/mL, 1 μg/mL, 10 μg/mL, or 50 μg/mL MANF before exposure to 100 nM dexamethasone to investigate a protective effect for MANF. […] These are key functional data.
# MANF expression [2] = conditions: male C57BL/6 B cells, B cell activation (CD40 at 65 nM); cited from earlier work
# DO 11.10 cells [3] = assay: Ara-C dose-response for cell death of DO 11.10 cells; type: cell-based; conditions: dose-response curve
# MANF expression [4] = conditions: immortalized B cells from 60 human individuals, tunicamycin to induce ER stress vs untreated; cited from earlier work
# MANF expression [5] = conditions: mouse splenocytes treated with cyclophosphamide; cited from earlier work
# DO 11.10 cells [6] = assay: MANF pretreatment protecting DO 11.10 cells from dexamethasone induced cell death; type: cell-based; conditions: 24 hours pretreatment, then 100 nM dexamethasone
# Method: FIGS. 10A-B provides an analysis of MANF's ability to protect DO 11.10 cells from cell death caused by the glucocorticoid dexamethasone. […]. DO 11.10 cells were pretreated for 24 hrs with MANF (dose shown; B) and then challenged with 100 nM dexamethasone to induce cell death. *p=0.003; **p=0.019.
# as §1
# KLH-specific IgM = KLH-specific IgM ELISA after injection of mice with TNP-KLH/alum with MANF or PBS; type: in vivo; conditions: 8 week old male mice, i.p. 100 μg TNP-KLH with 5% alum plus 200 μL of 1 μg/μL MANF vs PBS; blood seven days later; p=0.0013
# Method: FIG. 5 provides an ELISA analysis of anti-KLH specific IgM titers between mice injected with 2,4,6, Trinitrophenyl hapten conjugated Keyhole Limpet Hemocyanin (TNP-KLH) and either 200 μL of 1 μg/μL MANF (KLH-MANF; right) or phosphate buffered saline (KLH-PBS; left). P=0.0013, Student's t-test.
# Based on the expression in the non-germinal cells within the lymph nodes it was speculated that MANF might enhance antibody production and provide for faster and/or higher titers of antibodies following exposure to a novel antigen. To test this hypothesis, 8 week old male mice were injected intraperitoneally with 100 μg of sterile TNP-KLH (2,4,6, Trinitrophenyl hapten conjugated Keyhole Limpet Hemocyanin) with 5% alum in the presence of 200 μL of 1 μg/μL MANF or an equal volume of PBS. Blood was sampled via the submandibular vein seven days later and the KLH-specific IgM analyzed using an enzyme linked immunoassays (ELISA) from Life Diagnostics, Inc. The concentration was calculated from a standard curve. A Student's t-test was used to establish statistical significance (p=0.0013).
# DO 11.10 cells [7] = assay: MANF pretreatment protecting DO 11.10 cells from Ara-C induced cell death; type: cell-based; conditions: 1, 10, 100 ng/mL MANF, 24 hours pretreatment, then 10 μM Ara-C
# Description: FIGS. 11A-B provide an analysis of MANF's ability to protect DO 11.10 cells from cell death caused by the DNA damaging chemotherapeutic drug cytosine arabinoside (Ara-C). […].
# dopaminergic neurons = conditions: cited from earlier work
# [8] = tested on: midbrain dopaminergic neurons; conditions: primary nigral neuron cell cultures; cited from earlier work
# [9] = injection of MANF into 6-OHDA treated rat brains
molecule,measurement,setting,value
C[C@@H]1C[C@H]2[C@@H]3CCC4=CC(=O)C=C[C@]4(C)[C@@]3(F)[C@@H](O)C[C@]2(C)[C@@]1(O)C(=O)CO [dexamethasone],LD50 (dose that results in ~50% cell death),DO 11.10 cells [1],24 nM
B-cell activating factor: ligand used for B cell activation in ligand screen,MANF expression,MANF expression [2],"dramatic, but transient, repression"
"Nc1ccn([C@@H]2O[C@H](CO)[C@@H](O)[C@@H]2O)c(=O)n1 [Ara-C, cytosine arabinoside]",LD50 (dose that results in 50% cell death),DO 11.10 cells [3],~5 µM
tunicamycin,MANF expression,MANF expression [4],higher levels of MANF expression
O=P1(N(CCCl)CCCl)NCCCO1 (centres unmarked) [cyclophosphamide],MANF expression,MANF expression [5],highly induced
B1,protection against dexamethasone induced cell death,"DO 11.10 cells [6]; 10 ng/mL MANF, p=0.003","statistically significant, does-dependent protection"
same,protection against dexamethasone induced cell death,"DO 11.10 cells [6]; 100 ng/mL MANF, p=0.019","statistically significant, does-dependent protection"
same,protection against dexamethasone induced cell death,"DO 11.10 cells [6]; higher doses of MANF (1, 10, 50 μg/mL)",No statistically significant effects
same,levels of anti-KLH IgM antibodies,KLH-specific IgM,significantly increased
same,protection against Ara-C induced cell death,DO 11.10 cells [7],dose-dependent protection
same,behavioral symptoms associated with the disorder,dopaminergic neurons; [9],reduced the behavioral symptoms
same,loss of dopaminergic neurons,dopaminergic neurons; [9],statistically significant reduction
same,dopaminergic neuron survival and motor defects,dopaminergic neurons; up to 4 weeks after 6-OHDA treatment,improve dopaminergic neuron survival and correct motor defects
same,protection of dopaminergic neurons from death,[8],protected these midbrain dopaminergic neurons from death
